Data: US5648233A, “Modified tumor cytotoxic factor (TCF) and DNA encoding such” (Snow Brand Milk Products Co., Ltd., priority 1992, dated 1997)
Values joined by “and” are separate entries in the source; they are usually repeats but may differ in a detail not shown here. Equal values may be shown once. Read-outs that look alike come from different tables or passages of the source.

Columns and labels:
Meth A sarcoma = assay: Tumor cytotoxic activity (MTT); format: cell-based; details: Meth A cells, 5 days, serial dilution from 50 ng/mL, FIG. 9
Method: Tumor cytotoxic activities of TCF, TCF-3 and TCF-13 were measured. Meth A sarcoma was used as a target cell line. The cells were suspended in RPMI medium (GIBCO Co.) supplemented with 10% FCS at a final cell density of 2×10^4 cells per mL. Fifty microliters of the cell suspension was inoculated into each well in 96-well flat-bottomed microtiter plates. The purified TCF, TCF-3 and TCF-13 were serially diluted with RPMI medium from the concentration of 50 ng/mL, and the 50 μL of each diluted sample was added to each test well. After incubation at 37° C. for 5 days, MTT was added at a final concentration of 0.5 mg/ml and the plates were incubated at 37° C. Four hours later, 100 μL of the solution containing 10% SDS and […] was added to each well and left overnight at room temperature. Next day, the absorbance at 620 nm was measured as a parameter of the viable cell numbers in each well.

[1] = rat
Method: Anti-TCF polyclonal antibody was dissolved in 0.1M NaHCO3 solution to a final concentration of 10 μg/mL. One hundred microliters of the antibody solution was added to each well and the plates were left overnight at room temperature. The wells were filled with 50% solution of Block Ace in H2 O, incubated for 1 hour at room temperature and washed three times with washing solution (PBS containing 0.1% Tween 20 ). Plasma samples periodically collected from the rats which were intravenously injected with TCF or the modified TCFs were diluted with normal rat serum, when necessary. TCF solutions serially diluted with normal rat serum (from 10 ng/mL) was used as the standard TCF solution. Fifty microliters of the sample solution and 50 μL of the first buffer (0.2M Tris HCl pH 7.3 containing 50% Block Ace, 0.2M NaCl, 0.1% Tween 20, 0.2% CHAPS, 20 mM Benzamidine hydrochloride, and 10 mM EDTA) was mixed and added to each well. The plates were left for 3 hours at 37° C. and washed three times with the washing buffer. One hundred microliters of the peroxidase-labeled anti-TCF antibody solution, which was 400-fold diluted with 0.1M phosphate buffer pH 7.0 containing 10% Block Ace, 0.15M NaCl, 0.1% Tween 20, 4% rat serum and 0.5% mouse IgG, was added to each well. Plates were incubated for hours at 37° C. and washed three times with the washing buffer. Subsequently, 100 μL of substrate solution (0.4 mg/mL of o-phenylene diamine dihydrochloride and 0.006% H2 O2 in 0.1M citrate-phosphate buffer, pH 4.5) was added to each well and incubated at 37° C. for 30 minutes in a dark place. The enzyme reaction was stopped by addition of 50 μL of 6N H2 SO4. The absorbance at 492 nm was measured on an immuno reader (Corona Co.). Thus concentrations of the TCF or the modified TCFs in rat serum were determined.
Time course of plasma levels were examined by EIA in rats after the single intravenous injection of TCF and the modified TCFs. Hale Wister rats weighing about 200 g were used.

[2] = background statement; cited from earlier work
tumor cells = details: background statement; cited from earlier work
normal cells = details: background statement; cited from earlier work
[3] = single i.v. injection, 50 μg/kg, two-compartment model, Mean ± SD, *P < 0.05, **P < 0.01 vs wild-type TCF

Substance | tumor cytotoxic activity (in words) (Meth A sarcoma) | bioavailabilities (in words) ([1]; in vivo) | AUC (in words) ([1]; in vivo, iv) | CLtotal (total clearance) ([1]; in vivo, iv) [mL/min/kg] | metabolic fates (in words) ([1]; in vivo, iv) | plasma half-lives (in words) ([1]; in vivo, iv) | t1/2 α (plasma half-life of rapid phase) ([1]; in vivo, iv) [min] | t1/2 β (plasma half-life of slower phase) ([1]; in vivo, iv) [min] | total clearance (in words) ([1]; in vivo, iv) | half-life [2] | cytotoxic activity against tumor cells (in words) (tumor cells) | growth stimulating activity for normal cells (in words) (normal cells) | t1/2 α (plasma half-life of rapid phase) [1, 3] | t1/2 β (plasma half-life of slower phase) [1, 3] [min] | CLtotal (total clearance) ([1]; single i.v. injection, 50 μg/kg, Mean ± SD, **P < 0.01 vs wild-type TCF) [mL/min/kg]
TCF-3: modified TCF which lacks oligosaccharide chain 3 (Ser at 563rd replaced with Ala) | cytotoxic activities to Meth A cells in a dose-dependent manner | larger bioavailabilities | larger AUC | 18.8 ± 2.1 | slower metabolic fates | prolonged | 2.9 ± 0.3 | 54.2 ± 8.3 | decreased | – | – | – | – | – | –
TCF: tumor cytotoxic factor derived from human fibroblast; wild-type glycoprotein with four N-linked oligosaccharide chains | cytotoxic activities to Meth A cells in a dose-dependent manner | – | – | – | – | – | – | – | – | approximately 2 minutes | strong cytotoxic activity against tumor cells | growth stimulating activity for normal cells | 2.4 ± 2.5 min and 2.4 ± 0.5 min | 15.6 ± 4.6 | 51.5 ± 13.9
